According to PMC9499402, “Crystal Structure of an Archaeal Tyrosyl-tRNA Synthetase Bound to Photocaged L-Tyrosine and Its Potential Application to Time-Resolved X-ray Crystallography” (International Journal of Molecular Sciences, 2022):

Target: the molecule itself
Assay: crystal structure; oNBTyrRS (10 mg/mL) co-crystallised with oNBTyr (1.4 mg/mL), sitting-drop vapor diffusion at 20 °C; reservoir 20% PEG300, 3% PEG8000, 10% glycerol, 100 mM Tris-HCl pH 8.0; dimer in the asymmetric unit; 2.79 Å

B1: oNBTyrRS, O-(2-nitrobenzyl)-L-tyrosine-specific variant of Methanocaldococcus jannaschii tyrosyl-tRNA synthetase (Y32G, L65G, F108E, D158S, L162E, D286R) (enzyme, UniProt Q57834 1-306, looked up)
chain: MDEFEMIKRNTSEIISEEELREVLKKDEKSAGIGFEPSGKIHLGHYLQIKKMIDLQNAGFDIIIGLADLHAYLNQKGELDEIRKIGDYNKKVFEAMGLKAKYVYGSEEQLDKDYTLNVYRLALKTTLKRARRSMELIAREDENPKVAEVIYPIMQVNSIHYEGVDVAVGGMEQRKIHMLARELLPKKVVCIHNPVLTGLDGEGKMSSSKGNFIAVDDSPEEIRAKIKKAYCPAGVVEGNPIMEIAKYFLEYPLTIKRPEKFGGDLTVNSYEELESLFKNKELHPMRLKNAVAEELIKILEPIRKRL
notes: Methanocaldococcus jannaschii tyrosyl-tRNA synthetase (MjTyrRS), UniProt Q57834, with six substitutions; all 306 amino acid residues were modelled in the crystal structure; Residues of the TEV site may remain after cleavage; also called oNBTyr-tRNA synthetase; M. jannaschii oNBTyrRS; source: E. coli Rosetta2 (DE3), purified (HisTrap, TEV cleavage, HisTrap flow-through, desalting, HiTrap Q); not …
- stoichiometry N: 2
